Experimental data from the supplement of paper PMC9112550, “Optimization of the antimicrobial peptide Bac7 by deep mutational scanning” (BMC Biology, 2022).

Test system: Escherichia coli TOP10
Assay: shrunken log2 fold change of peptide-encoding DNA abundance (4.5 h post-induction vs induction); higher = less antimicrobial activity (less host growth inhibition)
Details: time post-induction: 4.5 h; library: site-saturation at positions 5, 18, 19, 20
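Also: peptides expressed intracellularly from a pBAD plasmid library in pooled LB shake-flask culture, induced with 0.3% L-arabinose, DNA abundance read by NGS, three biological replicates, DESeq2 with apeglm shrinkage.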

Row | Sequence | shrunken log2 fold change
1 | RRIRMRPPRLPRPRPRPIYIPRP | -0.156
2 | RRIRMRPPRLPRPRPRPIYNPRP | -0.347
3 | RRIRMRPPRLPRPRPRPKAHPRP | 0.892
4 | RRIRMRPPRLPRPRPRPKARPRP | 1.61
5 | RRIRMRPPRLPRPRPRPKCGPRP | 0.574
6 | RRIRMRPPRLPRPRPRPKCQPRP | 1.33
7 | RRIRMRPPRLPRPRPRPKDIPRP | -0.0934
8 | RRIRMRPPRLPRPRPRPKEEPRP | 0.0115
9 | RRIRMRPPRLPRPRPRPKFQPRP | 0.549
10 | RRIRMRPPRLPRPRPRPKGQPRP | 1.28
11 | RRIRMRPPRLPRPRPRPKHTPRP | 1.93
12 | RRIRMRPPRLPRPRPRPKHWPRP | 0.91
13 | RRIRMRPPRLPRPRPRPKIYPRP | -0.107
14 | RRIRMRPPRLPRPRPRPKKMPRP | 0.249
15 | RRIRMRPPRLPRPRPRPKMAPRP | 2.29
16 | RRIRMRPPRLPRPRPRPKMFPRP | 0.0019
17 | RRIRMRPPRLPRPRPRPKMWPRP | 0.643
18 | RRIRMRPPRLPRPRPRPKNKPRP | 0.408
19 | RRIRMRPPRLPRPRPRPKPKPRP | 0.476
20 | RRIRMRPPRLPRPRPRPKQHPRP | 0.675
21 | RRIRMRPPRLPRPRPRPKRGPRP | -0.0058
22 | RRIRMRPPRLPRPRPRPKSDPRP | 0.466
23 | RRIRMRPPRLPRPRPRPKYAPRP | 0.928
24 | RRIRMRPPRLPRPRPRPKYEPRP | 0.741
25 | RRIRMRPPRLPRPRPRPKYGPRP | 0.0382

Row | Sequence | shrunken log2 fold change
26 | RRIRMRPPRLPRPRPRPLCSPRP | -0.0295
27 | RRIRMRPPRLPRPRPRPLFCPRP | 0.188
28 | RRIRMRPPRLPRPRPRPLFIPRP | -0.643
29 | RRIRMRPPRLPRPRPRPLFPPRP | 0.152
30 | RRIRMRPPRLPRPRPRPLHNPRP | -0.127
31 | RRIRMRPPRLPRPRPRPLKEPRP | 0.701
32 | RRIRMRPPRLPRPRPRPLLEPRP | 2.21
33 | RRIRMRPPRLPRPRPRPLLGPRP | 0.495
34 | RRIRMRPPRLPRPRPRPLLTPRP | 2.33
35 | RRIRMRPPRLPRPRPRPLLVPRP | 0.199
36 | RRIRMRPPRLPRPRPRPLLYPRP | 0.0402
37 | RRIRMRPPRLPRPRPRPLMAPRP | 2.47
38 | RRIRMRPPRLPRPRPRPLMPPRP | 0.13
39 | RRIRMRPPRLPRPRPRPLNIPRP | -0.163
40 | RRIRMRPPRLPRPRPRPLNMPRP | -0.0641
41 | RRIRMRPPRLPRPRPRPLNRPRP | 0.0437
42 | RRIRMRPPRLPRPRPRPLNYPRP | -0.124
43 | RRIRMRPPRLPRPRPRPLQDPRP | 2.56
44 | RRIRMRPPRLPRPRPRPLSPPRP | 0.345
45 | RRIRMRPPRLPRPRPRPLVAPRP | 1.16
46 | RRIRMRPPRLPRPRPRPLWPPRP | 0.616
47 | RRIRMRPPRLPRPRPRPLWQPRP | 0.304
48 | RRIRMRPPRLPRPRPRPLWSPRP | -0.0373
49 | RRIRMRPPRLPRPRPRPLWTPRP | 0.261
50 | RRIRMRPPRLPRPRPRPMAHPRP | -0.0858

Row | Sequence | shrunken log2 fold change
51 | RRIRMRPPRLPRPRPRPMAVPRP | -0.00104
52 | RRIRMRPPRLPRPRPRPMCLPRP | 0.292
53 | RRIRMRPPRLPRPRPRPMCYPRP | 0.0406
54 | RRIRMRPPRLPRPRPRPMDNPRP | 0.0672
55 | RRIRMRPPRLPRPRPRPMDSPRP | 0.0342
56 | RRIRMRPPRLPRPRPRPMFFPRP | -0.0106
57 | RRIRMRPPRLPRPRPRPMFIPRP | -0.403
58 | RRIRMRPPRLPRPRPRPMFMPRP | 0.0101
59 | RRIRMRPPRLPRPRPRPMFVPRP | -0.298
60 | RRIRMRPPRLPRPRPRPMGIPRP | -0.0393
61 | RRIRMRPPRLPRPRPRPMGMPRP | -0.103
62 | RRIRMRPPRLPRPRPRPMHEPRP | 3.07
63 | RRIRMRPPRLPRPRPRPMHGPRP | -0.0683
64 | RRIRMRPPRLPRPRPRPMHRPRP | -0.156
65 | RRIRMRPPRLPRPRPRPMHYPRP | -0.221
66 | RRIRMRPPRLPRPRPRPMITPRP | -0.0461
67 | RRIRMRPPRLPRPRPRPMKTPRP | -0.00191
68 | RRIRMRPPRLPRPRPRPMLQPRP | 0.196
69 | RRIRMRPPRLPRPRPRPMNGPRP | 0.0715
70 | RRIRMRPPRLPRPRPRPMNSPRP | 0.0624
71 | RRIRMRPPRLPRPRPRPMPCPRP | -0.00548
72 | RRIRMRPPRLPRPRPRPMPQPRP | 4.29
73 | RRIRMRPPRLPRPRPRPMQAPRP | 3.02
74 | RRIRMRPPRLPRPRPRPMQLPRP | 0.33
75 | RRIRMRPPRLPRPRPRPMTPPRP | 0.582

Row | Sequence | shrunken log2 fold change
76 | RRIRMRPPRLPRPRPRPNCGPRP | -0.216
77 | RRIRMRPPRLPRPRPRPNDRPRP | 0.141
78 | RRIRMRPPRLPRPRPRPNEMPRP | 0.318
79 | RRIRMRPPRLPRPRPRPNFDPRP | 0.622
80 | RRIRMRPPRLPRPRPRPNGFPRP | 0.207
81 | RRIRMRPPRLPRPRPRPNHAPRP | -0.113
82 | RRIRMRPPRLPRPRPRPNHDPRP | -0.261
83 | RRIRMRPPRLPRPRPRPNIPPRP | -0.207
84 | RRIRMRPPRLPRPRPRPNKPPRP | -0.0387
85 | RRIRMRPPRLPRPRPRPNMNPRP | -0.056
86 | RRIRMRPPRLPRPRPRPNNNPRP | -0.134
87 | RRIRMRPPRLPRPRPRPNPAPRP | 0.201
88 | RRIRMRPPRLPRPRPRPNPFPRP | 0.211
89 | RRIRMRPPRLPRPRPRPNPIPRP | 0.188
90 | RRIRMRPPRLPRPRPRPNQNPRP | 0.079
91 | RRIRMRPPRLPRPRPRPNQVPRP | -0.217
92 | RRIRMRPPRLPRPRPRPNRKPRP | -0.0954
93 | RRIRMRPPRLPRPRPRPNSKPRP | -0.129
94 | RRIRMRPPRLPRPRPRPNTDPRP | -0.196
95 | RRIRMRPPRLPRPRPRPNVGPRP | -0.0241
96 | RRIRMRPPRLPRPRPRPNVVPRP | -0.0912
97 | RRIRMRPPRLPRPRPRPNVYPRP | -0.368
98 | RRIRMRPPRLPRPRPRPNWSPRP | -0.18
99 | RRIRMRPPRLPRPRPRPNWTPRP | 0.132
100 | RRIRMRPPRLPRPRPRPNYKPRP | -0.504

Row | Sequence | shrunken log2 fold change
101 | RRIRMRPPRLPRPRPRPPACPRP | 1.22
102 | RRIRMRPPRLPRPRPRPPAHPRP | 0.721
103 | RRIRMRPPRLPRPRPRPPAMPRP | 1.02
104 | RRIRMRPPRLPRPRPRPPANPRP | 1.17
105 | RRIRMRPPRLPRPRPRPPARPRP | 1.4
106 | RRIRMRPPRLPRPRPRPPCFPRP | 0.257
107 | RRIRMRPPRLPRPRPRPPEGPRP | 0.338
108 | RRIRMRPPRLPRPRPRPPEQPRP | 0.956
109 | RRIRMRPPRLPRPRPRPPFMPRP | 0.296
110 | RRIRMRPPRLPRPRPRPPGYPRP | 0.599
111 | RRIRMRPPRLPRPRPRPPHFPRP | 1.03
112 | RRIRMRPPRLPRPRPRPPIWPRP | 0.512
113 | RRIRMRPPRLPRPRPRPPLIPRP | 0.242
114 | RRIRMRPPRLPRPRPRPPMMPRP | 0.609
115 | RRIRMRPPRLPRPRPRPPPCPRP | 1.73
116 | RRIRMRPPRLPRPRPRPPPSPRP | 1.95
117 | RRIRMRPPRLPRPRPRPPQNPRP | 1.13
118 | RRIRMRPPRLPRPRPRPPQYPRP | 0.465
119 | RRIRMRPPRLPRPRPRPPRCPRP | 1.38
120 | RRIRMRPPRLPRPRPRPPREPRP | 1.19
121 | RRIRMRPPRLPRPRPRPPVCPRP | 0.439
122 | RRIRMRPPRLPRPRPRPPYAPRP | 0.291
123 | RRIRMRPPRLPRPRPRPQAWPRP | -0.0331
124 | RRIRMRPPRLPRPRPRPQCAPRP | 0.645
125 | RRIRMRPPRLPRPRPRPQDSPRP | 0.051

Row | Sequence | shrunken log2 fold change
126 | RRIRMRPPRLPRPRPRPQELPRP | 0.0211
127 | RRIRMRPPRLPRPRPRPQERPRP | -0.00224
128 | RRIRMRPPRLPRPRPRPQESPRP | 0.55
129 | RRIRMRPPRLPRPRPRPQFCPRP | 0.0736
130 | RRIRMRPPRLPRPRPRPQFFPRP | -0.207
131 | RRIRMRPPRLPRPRPRPQFYPRP | -0.263
132 | RRIRMRPPRLPRPRPRPQGAPRP | 0.124
133 | RRIRMRPPRLPRPRPRPQGCPRP | -0.00385
134 | RRIRMRPPRLPRPRPRPQHQPRP | 0.214
135 | RRIRMRPPRLPRPRPRPQINPRP | -0.0723
136 | RRIRMRPPRLPRPRPRPQLLPRP | 0.0491
137 | RRIRMRPPRLPRPRPRPQNCPRP | 0.0712
138 | RRIRMRPPRLPRPRPRPQNPPRP | 0.26
139 | RRIRMRPPRLPRPRPRPQNWPRP | 0.532
140 | RRIRMRPPRLPRPRPRPQPCPRP | 0.376
141 | RRIRMRPPRLPRPRPRPQPEPRP | 0.582
142 | RRIRMRPPRLPRPRPRPQPHPRP | 0.46
143 | RRIRMRPPRLPRPRPRPQPWPRP | 0.561
144 | RRIRMRPPRLPRPRPRPQQSPRP | 0.0524
145 | RRIRMRPPRLPRPRPRPQQVPRP | 0.00763
146 | RRIRMRPPRLPRPRPRPQSRPRP | 0.328
147 | RRIRMRPPRLPRPRPRPQSYPRP | 0.00618
148 | RRIRMRPPRLPRPRPRPQTRPRP | 1.05
149 | RRIRMRPPRLPRPRPRPQTSPRP | 0.339
150 | RRIRMRPPRLPRPRPRPQTWPRP | 0.39
